Experimental findings from patent US20240392024A1 (SHANGHAI CELGEN BIO PHARMACEUTICAL, published 2024) are described below.

Test [1] addresses T1, recombinant human TNFR2 antigen (Kangdai, batch number A100114U) (human, UniProt P20333 23-257).
T1 construct: also called hTNFR2; TNFR2-FC (Shanghai Saijin Biopharmaceutical Co., Ltd., Qiangke, catalog number A100114U); not shown: Fc part of the bought TNFR2-FC
T1 sequence (looked up): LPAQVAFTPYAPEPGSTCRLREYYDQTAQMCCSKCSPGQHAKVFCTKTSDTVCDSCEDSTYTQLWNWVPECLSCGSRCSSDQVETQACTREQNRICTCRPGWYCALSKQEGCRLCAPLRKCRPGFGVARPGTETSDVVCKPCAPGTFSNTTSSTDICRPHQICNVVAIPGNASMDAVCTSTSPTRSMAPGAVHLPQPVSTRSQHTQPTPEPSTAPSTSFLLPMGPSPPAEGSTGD
The experiment in a line: ELISA, coated recombinant human TNFR2. As to the method:
(§1) After TMB development, the detection was performed using microplate reader: dual wavelength 450 nm/655 nm detection, and results were calculated by OD₄₅₀-OD₆₅₅.
A general note: In an ELISA, binding on a coated surface is turned into a signal by an enzyme label.

Test [2] addresses T2, recombinant cynomolgus monkey TNFR2 (Cyno. TNFR2) (Sino Biological, 90102-C021) (cynomolgus monkey, UniProt A0A2K5VET2 132-366).
T2 sequence: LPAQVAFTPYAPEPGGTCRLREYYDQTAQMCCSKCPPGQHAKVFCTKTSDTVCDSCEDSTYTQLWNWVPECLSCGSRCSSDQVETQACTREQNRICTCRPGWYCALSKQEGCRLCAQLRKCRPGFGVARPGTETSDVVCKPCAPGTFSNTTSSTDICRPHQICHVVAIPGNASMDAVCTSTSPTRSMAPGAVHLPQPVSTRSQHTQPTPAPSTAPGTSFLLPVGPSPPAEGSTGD
The test can be described thus: ELISA, plate coated with recombinant cynomolgus monkey TNFR2. The procedure:
as §1
(§2) Using the same method as above, the TNFR2 antigens of cynomolgus monkey and mouse (Sino Biological, 90102-C021 and 50128-M08H) were coated separately. The anti-human TNFR2 mouse monoclonal antibodies to be tested were gradient diluted, then added with the anti-mouse Fab segment secondary antibody (Jackson Immuno Research, 515-035-072), and TMB development was performed. ELISA was used to detect the binding of 8 strains of mouse monoclonal antibodies to recombinant mouse TNFR2 (mTNFR2) and cynomolgus monkey TNFR2 (Cyno. TNFR2).

Test [3] addresses T1, recombinant human TNFR2 antigen …. The test can be described thus: ELISA, plate coated with recombinant human TNFR2 antigen. The procedure:
as §1

Test [4] has as its target T3, human TNFR2 on the cell membrane (human, UniProt P20333 23-461).
T3 construct: whole, on cells; One molecule for all cell formats; also called TNFR2-CHO cells; CHO-TNFR2
T3 sequence (looked up): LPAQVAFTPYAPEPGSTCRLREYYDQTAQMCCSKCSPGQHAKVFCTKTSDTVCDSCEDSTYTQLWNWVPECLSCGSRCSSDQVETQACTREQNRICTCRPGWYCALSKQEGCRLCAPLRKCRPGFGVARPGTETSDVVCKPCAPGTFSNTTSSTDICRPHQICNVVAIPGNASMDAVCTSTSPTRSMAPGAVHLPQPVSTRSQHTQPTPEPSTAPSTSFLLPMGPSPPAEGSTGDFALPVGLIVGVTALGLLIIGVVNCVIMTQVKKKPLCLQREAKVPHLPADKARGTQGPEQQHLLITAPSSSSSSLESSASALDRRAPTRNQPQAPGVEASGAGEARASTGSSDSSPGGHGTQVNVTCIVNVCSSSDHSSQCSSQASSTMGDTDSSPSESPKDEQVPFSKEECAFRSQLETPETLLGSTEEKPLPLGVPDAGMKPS
The test can be described thus: flow cytometry on TNFR2-CHO cells. The procedure: (§3) Purified anti-human TNFR2 mouse monoclonal antibodies were co-incubated with TNFR2 overexpressing CHO cell lines (obtained routinely as follows: PCDNA3.4-TNFR2 was transfected into CHO cells, and stable high expression TNFR2 cell lines were obtained through drug screening and monoclonal sorting), and then stained. The antibody binding intensity was analyzed by flow cytometry. The specific steps are as follows: TNFR2-CHO cells were counted, centrifuged, resuspended, then added to a 96-deep well plate, and the supernatant was discarded. The anti-TNFR2 antibodies to be tested were gradient diluted, added to the 96-deep well plate. […] The samples were detected using Beckman CytoFLEX.
For orientation: A flow cytometer gives signals particle by particle.

In test [5] the target is T3, human TNFR2 on the cell membrane. The experiment in a line: flow cytometry, TNFR2-CHO cells. As to the method: as §3
The target of test [6] is T2, recombinant cynomolgus monkey TNFR2 …. The experiment in a line: ELISA, coated cynomolgus TNFR2. As to the method:
as §1, §2

Test [7] deals with T4, recombinant mouse TNFR2 (mTNFR2) (Sino Biological, 50128-M08H) (mouse, UniProt P25119 23-258).
T4 sequence (looked up): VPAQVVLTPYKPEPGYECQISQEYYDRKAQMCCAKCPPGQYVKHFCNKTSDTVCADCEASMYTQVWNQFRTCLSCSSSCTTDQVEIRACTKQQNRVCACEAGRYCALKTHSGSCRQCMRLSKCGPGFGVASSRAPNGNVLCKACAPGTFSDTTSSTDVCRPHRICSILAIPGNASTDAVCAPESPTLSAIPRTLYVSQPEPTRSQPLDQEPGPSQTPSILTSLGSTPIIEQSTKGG
The test can be described thus: ELISA, plate coated with recombinant mouse TNFR2. As to the method:
as §1, §2

B1: anti-human TNFR2 mouse monoclonal antibody 16D2 (antibody, V domains shown)
VH: EVQLQQSEPELVKPGASVKIPCKASGYTFTDYNMDWVKQSHGKSLEWIGDINPNNGVTIYNQKFKGKATLTVDKSSSTAYMELRSLTSEDTAVYYCVILEYFDYWGQGTTLTVSS
VL: DIVMTQSTSSMSVSLGDTVSITCHASQGISSNIGWLQQKPGKSFKGLIYHGTKLEDGVPSRFSGSGSGADYSLTISSLESEDFADYYCVQYAQFPRTFGGGTKLEIK
With B1, the EC50 was 0.0218 µg/mL in test [1]; 0.248 nM in test [2]; 0.146 nM in test [3]; 38.3 nM in test [4]; 5.71 µg/mL in test [5]; 0.0371 µg/mL in test [6]. The binding result in test [7] is recorded as “no binding”.

Usually EC50 stands for the midpoint of the concentration-response curve.
